{
  "source": "the nanobody polyreactivity screen of Harvey et al. (2022)",
  "data": [
    {"test": "yeast display, Sf9 membrane polyspecificity reagent, FACS + sequencing; frameworks hold sequencing errors", "procedure,_shortened": "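A nanobody's polyreactivity label depends on the gate it was sorted from. Yeast display cells were stained with 10% biotinylated, detergent-solubilized Sf9 membrane reagent for 1 hour at 4 °C, enriched on streptavidin microbeads and sorted by FACS. The low and high (top ~1%) gates were set on anti-HA fluorescence for expression and streptavidin fluorescence for reagent binding.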", "values": [
      {"sequence": "QVQLVESVGGLVQAGGSLRLSCAASGSMFKVYAMGWYRQAPGKEREFVAAITSSDSNTNYADSVKGRFTISRDNAKNTVYLQMNSLKPEDTAVYYCNKDGGGDSYWYDYWGQGTQVTVSS", "polyreactivity (PSR sort gate)": "low polyreactivity"},
      {"sequence": "QVQLVESGGGLVQAGGSLRLSCAASGFTFRYYAMGWYRQAPGKERELVAAITSRGGNTYYADSVKGRFTISRDNAKNTVYLQMNSLKPEDTAVYYCAARYSTTMDYWGQGTQVTVSS", "polyreactivity (PSR sort gate)": "high polyreactivity"},
      {"sequence": "QVQLVESGARLVQAGGSLRLSCDASGITFFAYAIGWYRQAQGKERELVAAISCNTGRTYYADSVKGRFTISRDNAKITVYLQMNSLKPEDTAVYYCAKRGVGVGYNYWGQGTQVTVSS", "polyreactivity (PSR sort gate)": "high polyreactivity"},
      {"sequence": "QVQLVESGGGLVQAGGSLRLSCAASGRTFRVNAMGWYRQAPGKERELVAAITWRGGSTYYADSVKGRFTISRDNAKNTVYLQMNSLKPEDTAVYYCAARYSSSSRRQKSDYWGQGTQVTVSS", "polyreactivity (PSR sort gate)": "high polyreactivity"},
      {"sequence": "QFQLVESGGGLDQAGGSLRLTCAASGLTIRWYAMGWYRQAPGKERELVAAIRWSGGSTYYADSVKGRFTISRDNAKNTVYLQMNSLKPEDTALYYCAARFLGYQSGTERDYWGQGTQVTVSS", "polyreactivity (PSR sort gate)": "high polyreactivity"},
      {"sequence": "QVQLVESGGGLVQAGGSLRLSCSASGITFWKYAMGWYRQAPGKERELVASISGRGGSTYYADSVKGRFTISRYKANNTVYLQMNSLKPEDTAVYYCAKYPGISGYNYWGQGTQVTVSS", "polyreactivity (PSR sort gate)": "high polyreactivity"},
      {"sequence": "QVQLVESGGGLVQAGGSLRLSCAASGISFAIYAMGWYRQAPGKERELVAAISARGGTYYADSVKGRFTISRDNANNTVYSQMNSLKPEDTAVYYCNTDYVSRDDWDYRRYDYWGQGTQVTVSS", "polyreactivity (PSR sort gate)": "low polyreactivity"},
      {"sequence": "QVQLVESGGGLVQAGGSLRLSCAASGFTFISNAMGWYRQAPGKERELVAAISSSGGRTYYADSVKGRFTISRDNAKNTVYLQMNSLKPEDTAVYYCNADRSLLYSRKIEYDYWGQGTQVSVSS", "polyreactivity (PSR sort gate)": "low polyreactivity"},
      {"sequence": "QVQLVESGGGLVQAGGSLRLSCAASGSIFYSYAMGWYRQAPGKERELVATITRRGGSTYYADSVKGRFTISRDNAKNTVYLQMNSLKPEDTAVYYCAVKPVRYAYRIYDLRFEYWGQGTQVTVSS", "polyreactivity (PSR sort gate)": "high polyreactivity"},
      {"sequence": "QVQLVESGGGLVQAGGSLRLSCAASGRIFHLYAMGWYRQAPGKERELVATITYDGGSTYYADSVKGRFTISRDNAKDTVYLQMNSLKPEDTAVYYCASPSPHVGLKWEYDYWGQGTQVTVSS", "polyreactivity (PSR sort gate)": "low polyreactivity"},
      {"sequence": "QVQLVESGGGLVQAGGSLRLSCAASGSTFLYYAMGWYRQAPGKEREFVAAISISGGSTYYADSVKGRFTISRDNAKNTVYLHMNSLKPEDTAVYYFAARKKEYKPGNYWGQGTQVTVSS", "polyreactivity (PSR sort gate)": "low polyreactivity"},
      {"sequence": "QVQLVESGGGLVKAGGSLRLSCAASGLIFIAYDMGWYRQAPGKERELVAAISSSGGSTYYADSVKGRFTISRDNAKNTVYFQMNSLKPEDTAVYYCASDTTKLQGVEGDYWGQGTQGTVSS", "polyreactivity (PSR sort gate)": "low polyreactivity"},
      {"sequence": "QVQLVESGGGLDQAGGSLRLSCAASGSTFPSYAMGWYRQAPGKERELVAAINSGGGTNYADSVKGRFTISRDNAKNTVYLQMNSLKPEDTAVYYCAKSRYDYTKTEGGYWGQGTQVTVSS", "polyreactivity (PSR sort gate)": "low polyreactivity"},
      {"sequence": "QVQLVESGGGLVQAGGSHRLSCAASGSTFIDYAMGWYRQAPGKERELVAAITNGGNTKYADSVKGRFTISRDNAKNTVYLQMNSLKPEDTAVYYCAREPSIFTPSYDYWGQGTQVTVSS", "polyreactivity (PSR sort gate)": "low polyreactivity"},
      {"sequence": "QVQLVESGGGLVQAGGSLRLSCAASGSTFTLYAMGWYRQAPGKERELVAAISWSGDTTYYADSVKGRFTISRDNAKNTVYLQMNSLKPEDTAVYYCAADWYTSYYYEHESWGQGTQVTVSS", "polyreactivity (PSR sort gate)": "high polyreactivity"},
      {"sequence": "QVQLVESGGGLVQAGGSLRLCCAAYGFTFRINAMGWYRQAHGKERELVAYMSGRGGSTYYADSVQGRFTISRDNAMNTVYLQMNSLKPEDTAVYYCAATGSSSMSSYYLGQGTQVTVSS", "polyreactivity (PSR sort gate)": "high polyreactivity"},
      {"sequence": "QVQLVESGGGLVQAGGSLRLSCAASGFTFYRYTMGWYRQAPGKERELVAAISSGDSTYYADSVKGRFTISRDNAKNTVYLQMNSLKPEDTAVYYCAARQYSRGAIVYYWGQGTQVTVSS", "polyreactivity (PSR sort gate)": "high polyreactivity"},
      {"sequence": "QVQLVESGGGLVQAGGSLRLSCAASGSTFGPYAMGWYRQAPGKERELVATINSSGSTNYADSVKGRFTISRDNAKNTVYLQMNSLKPEDTAVYYCATLHYYYWYDYWGQGTQVTVSS", "polyreactivity (PSR sort gate)": "low polyreactivity"},
      {"sequence": "QVQLVESGGGLVQAGGSLRLICAASGSTFPVNAMGWYRQAPGKERELVAAIRSSTGRTYYADSVKGRFTISRDNAKNTVYLQMNSLKPEDTAVYYCAAYYLGQYEYDYWGQGTQVTVSS", "polyreactivity (PSR sort gate)": "low polyreactivity"},
      {"sequence": "QVQLVESGGGLVQAGGSLRLSCAASGRIFRGYAMGWYRQAPGKERELVAAIDRVGRTKYADSVKGRFTISRDNAKNTVYLQMNSLKPEDTAVYYCAAKASRVDWGYGYWGQGTQVTVSS", "polyreactivity (PSR sort gate)": "high polyreactivity"},
      {"sequence": "QVQLVESGVGLVQAGGSLRLSCAASGRIFYLYAMGWYRQAPGKDSELVAAITWSGGSTTYADSVKVRFTISRDNAKNSVYLQMNSLKPEETAVYYCNADGWIFPSVSPMDYWGQGTQVTVSS", "polyreactivity (PSR sort gate)": "low polyreactivity"},
      {"sequence": "QVHLVDSGRGLVQAGGSLRLSCAASGSTFAEYVMGRYRQAPGKERELVASIDSGGGTNYADSVKGRFTISRDNAKNTVYLQMNSLKPEDTAVYYCAASGRDIGGYDYWGHGTQVTVSS", "polyreactivity (PSR sort gate)": "low polyreactivity"},
      {"sequence": "QVQLVESWRGLDQAGGSLRLICSASGGIFKGYSMGWFRQAPGKERELVAVISSRVGSTYYADSLKGRFTISRDNEKNTVYLQMNSQKPEHTAVYYCAKRRYAAVNYNYWGQGTQVTVSS", "polyreactivity (PSR sort gate)": "high polyreactivity"},
      {"sequence": "QVQLVESGGGLVQAGGSLRLSCAASGIIFDFYAMGGYRQAPGKEREFVAAINSGSGSTYYADSVKGRFTISRDNAKNTVYLQMNSLKPVDTAVYYCAADGLSATLTWYSYDYWGQGTQVTVSS", "polyreactivity (PSR sort gate)": "low polyreactivity"},
      {"sequence": "QVQLVESGGGLVQAGGSLRLSCAASGSTFGAYAMGWSRKAPGKERELVAAISRRGGSTYYADSVKGRFTISRDNAKNTVYLQMNSLKPEDTAVYYCNAVGTRVDGEHYYWGQGTQVTVSS", "polyreactivity (PSR sort gate)": "high polyreactivity"},
      {"sequence": "QVQLVESGGGLVQAGGSLRLSCAASGSTFPYYVMGWYRQAPGKERELVAAISKSGGSTYYADSVKGRFTISRDNEKNTVYLQMNSLKPEDTAVYYCAKSYRSSRRYNYWGQDTQVTVSS", "polyreactivity (PSR sort gate)": "high polyreactivity"},
      {"sequence": "QVQLVESGGGLVQAGGSLRLSCAASGRTFQRYAMVWYRQAPGKERELVPAITSRGGSTYYSDSVKGRFTISRDNAKNTVYLQMNSLKPEDTAVYYCNARSRRTLSEPQSEMDYWGQGTQVTVSS", "polyreactivity (PSR sort gate)": "high polyreactivity"},
      {"sequence": "QVQLVESGGGLVQVGGILLLSCAASGFTFYDYAMGWYRQAPGKERELVAAISRGGSTYYADSVKGRFTISRDNAKNTVNLQMNSLKPEDTAVYYCNARPTRIYHGMVYWGQGTQVTVSS", "polyreactivity (PSR sort gate)": "low polyreactivity"},
      {"sequence": "QVQLVESGGGLVQAGGSLRLSCAASGSTFGYYAMGWYRQAPGKERELVAAITSGASTNYADSVKGRFTISRDNAKNTVYLQMNSLKPEDTAVYYCAAANLQYGKDVQGDYWGQGTQVTVSS", "polyreactivity (PSR sort gate)": "low polyreactivity"},
      {"sequence": "QVQLVESGGGLVQAGGSLRLSCAASGRTFTRYAMGWYRQAPGKERELVAAISRGGSTYYADSVKGRFTISRDNAKNTVYLQMNSPKPEDTAVYYCAARYGTYTAGNYWGQGTQVTVSS", "polyreactivity (PSR sort gate)": "high polyreactivity"},
      {"sequence": "QVQLVESGGGLVQAGGSLRLSCAASGITLVSYARGWYRQAPGKERELVAAISWSGGRTFYADSVKGRFTISRDNAKNTVYLQMNRLKPEDTAVYYCNTAQYPYFYSHVSYPHDYWGQGTQVTVSS", "polyreactivity (PSR sort gate)": "high polyreactivity"},
      {"sequence": "QVQLVESGGGLVQAGGSLRLSCAASGSIFLYNDMGWYRQAPGKERELVAAISSGGNTNYADSVTGRFTISRDNAKNTVYLQMNSLKPEDTAVYYCNAAWIRVFQYTLYKYVYWGQGTQVTVSS", "polyreactivity (PSR sort gate)": "low polyreactivity"},
      {"sequence": "QVQLVESGGGLVQAGGSLRLSCAASGRTFETNAMGWYRQAPGKERELVASINWSGGSTYYADSVKGRFTISRDNAKNTVYLQMNSLKPEDTAVYYCAAEHSYWDWWSYYYWGQGTLVTVSS", "polyreactivity (PSR sort gate)": "low polyreactivity"},
      {"sequence": "QVQLVESGGGLVQAGGSLRLSCAASGNIFVRYAMGWYRQAPGKEREFVAAISSSGGSTRYADSVKGRFTISRDNAKNTVYLQMNSLKPEDTAVYYCAATRVARHGSPMYYWGQGTQVTVSS", "polyreactivity (PSR sort gate)": "high polyreactivity"},
      {"sequence": "QVQLVESGGGLVQAGGSLRLSCAPSGSTLYRNAMGWYRQAPGQDRELVAAINYRGTRTYDADSVKGRFTISRDTAKNTVYLQMNSLQPEDTAVYFCAKDYSQFVTYPYDYWGQGTQVTVSS", "polyreactivity (PSR sort gate)": "low polyreactivity"},
      {"sequence": "QVQLVESGGGLVQAGGSLRLSCAASDAMGWYRRAPGKERELVASISNGVSTNYADSVKGRFTISRDNAKNTVYLQMNSLKPEVTAVYYCASDAKTVGRDDLYWYEVEFDYWGQGTQVSVSS", "polyreactivity (PSR sort gate)": "low polyreactivity"},
      {"sequence": "QVQLVESGGGLVQAGGSLRLSCAASGSTFDYNAMVWYRQAPGKESDLVVAITWGGDSTYADSVKGRFTISRDNAKNTVYLQMNSLKPEDTAVYYCAAEQDPWTSRYVFFASRYDYWGQGTQVTVSS", "polyreactivity (PSR sort gate)": "low polyreactivity"},
      {"sequence": "QVQLVESGGGLVQAGGSLRLSCAASGRIFTGYAMGWYRQAPGKERELVAAISRGGSTNYADSVKGRFTISRDNAKNTVFLQMNSLKPEDTAVYYCAAGVHWDRGDYWGQGTQVTVSS", "polyreactivity (PSR sort gate)": "low polyreactivity"},
      {"sequence": "QVQLVESGGGLVQAGGSLRLSCAASGSIFSRNAMGWYRQAPGKEREFVARISWSSTSTNYAESVKGRFTISRDNAKNTVYLQMNSLKPEDSAVYYCAAHFRGDRRFDYWGQGTQVTVSS", "polyreactivity (PSR sort gate)": "high polyreactivity"},
      {"sequence": "QVHLVESGGGLVQAGGSLRLSCAASGGTLYANAKGWYRQAPGKERELVATITSSSGSTSYADSVKGRFSISRDNAKNTVYLQKNSLKPEDTAVYYCAKDSHAQGPYRYIHYHHTGDYWGQGTQVTVSS", "polyreactivity (PSR sort gate)": "low polyreactivity"},
      {"sequence": "QVQLVESGGGLVQAGGSLRLSCAASGSTIFIYAMGWYRQAPGKERELVAAISGSGGTTYYADSVKGRFTISRDNAKITVYLQMNSLKPEDTAVYYCATDITLWYAYSHEGLYIGYYWGQGTQVSVSS", "polyreactivity (PSR sort gate)": "low polyreactivity"}
    ]}
  ]
}
